Assay results published in US7829082B2, “Catheter composition and uses thereof” (Genentech, Inc., priority 2001, dated 2010).

Assays:
[1] = Visual inspection of alteplase diluted in NS; assay type: physicochemical
Procedure: Alteplase (2 mg/vial rt-PA) was diluted to a concentration of 0.01, 0.025, 0.05, and 0.1 mg/mL final protein concentration in 0.9% NaCl (Normal Saline, NS)-containing IV bags (Baxter and/or Abbott, 250 mL). Specifically, rt-PA, protein bulk, was diluted to 1 mg/mL (50-mg vial formulation equivalent, 0.004% TWEEN 80™ surfactant) with filtered MILLI-Q™ water, or a 100-mg vial rt-PA was reconstituted to 1 mg/mL (0.008-0.011% TWEEN 80™ surfactant) with Sterile Water for Injection, USP (SWFI) using a 60-cc BD syringe and an 18 G needle directly inserted into the rubber septum of the vial at the center of the cake. The vial was gently mixed by slow inversions or rolling action until the cake was totally dissolved. IV diluent (0.9% NaCl, NS) was withdrawn and replaced with the same amount of the reconstituted or diluted 1 mg/mL rt-PA as follows:
After dilution into the IV bags (n=2 for each concentration), the bags were gently mixed by inversion (about 20-24 times). A 10-mL aliquot was withdrawn from the inlet port of the IV bag using a 10-cc BD syringe and 22 G needle. An aliquot (t=0) was dispensed directly into a 20-cc Type I clear glass vial for visual inspection. […]
Each aliquot was examined under a light box equipped with a black and white background. […] The color and clarity of the aliquots were recorded accordingly.

[2] = biological target: T1, in vitro clot consisting of plasminogen and fibrin (Homo sapiens, UniProt P00747+P02671+P02675+P02679); test: Purified clot lysis activity for rt-PA; assay type: biochemical
T1 construct: Plasminogen kept frozen at or below −60° C. until use; purchased Biocell (fibrinogen); Calbiochem (thrombin)
Procedure: (7) Purified clot lysis activity for rt-PA. […] Samples were diluted to assay range (200-1000 ng/mL) in two concentrations with diluent. Dilutions were performed the day before the assay and diluted samples were stored at 2-8° C. until analysis the next day. rt-PA reference material was diluted similarly as an internal reference.
2. Purified Clot Lysis Test (Microcentrifugal Analyzer (Test 1) and Plate Reader (Test 2)):
The potency of the alteplase t-PA protein was assessed by the purified clot lysis assay described below. Samples were diluted to assay range (200-1000 ng/mL) in three or two concentrations with diluent. Dilutions were performed the day before the assay and diluted samples were stored at 2-8° C. until analysis the next day. Rt-PA reference material was diluted similarly as an internal reference.
The assay works as follows: Reagents are substances added to a solution of another substance to participate in a chemical reaction. In this case, contents of boat 1 will react with contents of boat 2 to form a standardized clot. […] As the clot breaks apart, there is a change in the absorbance (light) characteristics. The absorbance is plotted versus time. […]
The endpoint (lysis time) may be determined by a computer program or manually. For automatic calculation by computer, the endpoint is the time required to lyse the clot, which is determined automatically. For manual endpoint determination, the endpoint is defined as the first time point below 0.03 absorbance units where the change is less than 0.003 abs unit. Specifically, for manual determination, the endpoint was determined from the absorbance time data. The first absorbance point less than 0.0300 was located. The endpoint was determined as the time of the first absorbance value less than 0.0300 if the change in absorbance between the current absorbance and the subsequent absorbance was less than 0.0030. If the delta absorbance was greater than 0.0030, one moved to the next absorbance reading and determined the delta absorbance. […]
The mean lysis time for each standard curve point was calculated. […]

[3] = 2 mg of alteplase or 10,000 U of urokinase, dwell 2 hours, up to two treatments; p=0.013; Haire et al.; cited from earlier work

T1 sequence (P00747 20-810 limits assumed): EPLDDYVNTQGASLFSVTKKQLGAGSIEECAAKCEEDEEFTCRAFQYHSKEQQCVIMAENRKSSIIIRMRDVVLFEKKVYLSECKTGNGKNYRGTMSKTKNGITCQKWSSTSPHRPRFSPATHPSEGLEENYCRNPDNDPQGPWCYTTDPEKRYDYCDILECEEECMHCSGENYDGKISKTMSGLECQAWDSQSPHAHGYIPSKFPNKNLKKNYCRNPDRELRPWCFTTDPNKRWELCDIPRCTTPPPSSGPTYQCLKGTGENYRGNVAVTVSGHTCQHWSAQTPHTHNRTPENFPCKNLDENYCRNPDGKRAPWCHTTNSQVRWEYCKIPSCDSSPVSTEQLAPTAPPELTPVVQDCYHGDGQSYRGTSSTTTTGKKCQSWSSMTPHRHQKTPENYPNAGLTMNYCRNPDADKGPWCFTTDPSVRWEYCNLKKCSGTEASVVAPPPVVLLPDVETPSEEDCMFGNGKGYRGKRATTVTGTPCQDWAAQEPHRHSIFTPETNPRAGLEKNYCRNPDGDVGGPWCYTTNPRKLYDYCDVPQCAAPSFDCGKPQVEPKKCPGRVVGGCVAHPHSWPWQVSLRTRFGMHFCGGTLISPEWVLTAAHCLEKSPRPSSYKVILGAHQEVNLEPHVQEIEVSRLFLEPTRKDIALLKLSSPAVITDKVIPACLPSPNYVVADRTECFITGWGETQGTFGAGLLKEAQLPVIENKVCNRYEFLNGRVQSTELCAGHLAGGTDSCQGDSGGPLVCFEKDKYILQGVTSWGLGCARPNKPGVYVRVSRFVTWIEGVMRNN
T1 sequence (P02671 36-629 limits assumed): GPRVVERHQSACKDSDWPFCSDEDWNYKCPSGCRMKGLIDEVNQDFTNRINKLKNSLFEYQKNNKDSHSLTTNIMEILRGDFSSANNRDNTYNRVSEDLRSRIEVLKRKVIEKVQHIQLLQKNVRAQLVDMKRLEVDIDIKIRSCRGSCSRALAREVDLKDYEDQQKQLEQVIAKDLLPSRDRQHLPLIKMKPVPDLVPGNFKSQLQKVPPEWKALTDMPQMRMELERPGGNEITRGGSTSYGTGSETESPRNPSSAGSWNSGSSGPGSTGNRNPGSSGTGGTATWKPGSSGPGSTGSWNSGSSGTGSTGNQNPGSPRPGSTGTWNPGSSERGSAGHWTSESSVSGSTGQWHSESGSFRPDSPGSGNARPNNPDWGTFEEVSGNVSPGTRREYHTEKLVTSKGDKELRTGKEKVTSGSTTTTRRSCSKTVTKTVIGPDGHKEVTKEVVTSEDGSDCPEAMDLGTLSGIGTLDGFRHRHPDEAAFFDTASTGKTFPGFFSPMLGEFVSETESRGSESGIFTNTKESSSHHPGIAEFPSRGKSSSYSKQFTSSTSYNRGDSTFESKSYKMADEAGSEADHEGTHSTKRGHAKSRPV
T1 sequence (P02675 45-491 limits assumed): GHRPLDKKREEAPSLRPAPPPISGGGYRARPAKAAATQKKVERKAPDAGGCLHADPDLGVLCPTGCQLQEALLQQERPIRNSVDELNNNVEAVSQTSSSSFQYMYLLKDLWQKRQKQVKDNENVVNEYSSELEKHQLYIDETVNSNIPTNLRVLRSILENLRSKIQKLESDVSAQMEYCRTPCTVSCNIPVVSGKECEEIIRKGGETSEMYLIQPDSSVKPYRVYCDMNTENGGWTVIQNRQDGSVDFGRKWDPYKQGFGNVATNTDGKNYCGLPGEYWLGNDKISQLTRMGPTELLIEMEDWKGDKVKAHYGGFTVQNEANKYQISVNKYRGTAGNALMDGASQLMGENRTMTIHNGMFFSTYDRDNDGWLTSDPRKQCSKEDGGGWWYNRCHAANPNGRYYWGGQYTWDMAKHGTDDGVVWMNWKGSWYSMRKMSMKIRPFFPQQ
T1 sequence (P02679 27-437 isoform P02679-2 limits assumed): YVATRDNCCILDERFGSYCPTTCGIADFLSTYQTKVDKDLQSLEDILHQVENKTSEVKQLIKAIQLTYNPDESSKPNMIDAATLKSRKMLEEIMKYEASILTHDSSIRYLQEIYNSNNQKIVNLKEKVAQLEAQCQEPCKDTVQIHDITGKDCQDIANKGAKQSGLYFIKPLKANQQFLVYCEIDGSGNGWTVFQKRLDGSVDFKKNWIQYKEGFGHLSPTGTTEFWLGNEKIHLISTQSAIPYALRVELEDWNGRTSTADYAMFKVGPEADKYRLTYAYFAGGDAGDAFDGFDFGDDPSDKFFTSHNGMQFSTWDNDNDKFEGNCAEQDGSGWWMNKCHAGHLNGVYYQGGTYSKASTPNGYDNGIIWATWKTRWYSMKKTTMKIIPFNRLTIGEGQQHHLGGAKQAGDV

Substance	Visual inspection ([1]; 0.1 mg/mL in NS, immediately after dilution and throughout the infusion period)	Visual inspection ([1]; diluted to 0.01, 0.025, and 0.05 mg/mL with NS, initially and after 24 hours of infusion (no filter) at room temperature)	Lytic activity in clot lysis effectiveness test ([2]; diluted down to 0.01 mg/mL in normal saline)	Lytic activity after storage ([2]; diluted to 0.01, 0.02, and 0.05% mg/mL in 0.9% NaCl IV bags, after 24 hours of storage at ambient conditions)	Specific activities by the clot-lysis activity assay ([2]; fractions collected over 24 hours, all concentrations in NS, in the majority of cases)	Catheters with function restored [3] [%]
alteplase t-PA: tissue plasminogen activator in a native form such as ACTIVASE® alteplase t-PA; in Example 7 diluted in 0.9% NaCl	slightly cloudy solution	colorless, clear to slightly opalescent solutions	lytically active	lytically active	greater than 90%	89
urokinase	–	–	–	–	–	59
